From publication PMC4764120, “Crystal Structure of Alcohol Oxidase from Pichia pastoris” (PLoS ONE, 2016)

Target: the molecule itself
Test: crystal structure; X-ray, 2.35 Å, space group P21, eight monomers in the asymmetric unit; crystals grown at 4°C in 100 mM HEPES pH 7.5, 200 mM CaCl2, 33.3% PEG 400; interfaces analysed with PISA

B1: alcohol oxidase AOX1 from Pichia pastoris (enzyme, UniProt P04842 1-663, looked up)
chain: MAIPEEFDILVLGGGSSGSCIAGRLANLDHSLKVGLIEAGENNLNNPWVYLPGIYPRNMKLDSKTASFYTSNPSPHLNGRRAIVPCANVLGGGSSINFMMYTRGSASDYDDFQAEGWKTKDLLPLMKKTETYQRACNNPDIHGFEGPIKVSFGNYTYPVCQDFLRASESQGIPYVDDLEDLVTAHGAEHWLKWINRDTGRRSDSAHAFVHSTMRNHDNLYLICNTKVDKIIVEDGRAAAVRTVPSKPLNPKKPSHKIYRARKQIVLSCGTISSPLVLQRSGFGDPIKLRAAGVKPLVNLPGVGRNFQDHYCFFSPYRIKPQYESFDDFVRGDAEIQKRVFDQWYANGTGPLATNGIEAGVKIRPTPEELSQMDESFQEGYREYFEDKPDKPVMHYSIIAGFFGDHTKIPPGKYMTMFHFLEYPFSRGSIHITSPDPYAAPDFDPGFMNDERDMAPMVWAYKKSRETARRMDHFAGEVTSHHPLFPYSSEARALEMDLETSNAYGGPLNLSAGLAHGSWTQPLKKPTAKNEGHVTSNQVELHPDIEYDEEDDKAIENYIREHTETTWHCLGTCSIGPREGSKIVKWGGVLDHRSNVYGVKGLKVGDLSVCPDNVGCNTYTTALLIGEKTATLVGEDLGYSGEALDMTVPQFKLGTYEKTGLARF
notes: Alcohol oxidase AOX1, Pichia pastoris, UniProt P04842, 663 residues as printed; identified by mass spectrometry as the host's own protein; the final crystallographic model holds residues 2 to 663 of each monomer; No tag: the protein comes from the expression host itself; also called methanol oxidase AOX1
- stoichiometry N: 8
